Reference: patent publication US11932908B2, “Compositions and methods for diagnosis and treatment of epilepsy” (THE REGENTS OF THE UNIVERSITY OF CALIFORNIA, priority 2004, dated 2024)

How the values were obtained:
[1] = target: T1, PQ type VDCC (Cav2.1) (Oryctolagus cuniculus, UniProt P27884); test: Patch-clamp analyses of HEK cell line with P/Q type VDCCs and wild type EFHC1 or mutant constructs; assay type: cell-based; conditions: for Activation V0.5 (mV): half-maximal voltage of activation; for Activation V0.5 (mV) / Inactivation V0.5 (mV) / Activation k (mV) / Inactivation K (mV): mean ± SEM; for Inactivation V0.5 (mV): half-maximal voltage of inactivation; for inactivation speed of P/Q type VDCC (decelerating effect on calcium inactivation): patch-clamp; for Activation k (mV) / Inactivation K (mV): slope factor
T1 construct: expressed in transfected cells; host or cells: HEK cell line

[2] = tested on: mouse hippocampal primary culture neurons; conditions: 24, 36 and 48 hours after transfection; mutants compared to wild-type EFHC1
Protocol: Mouse hippocampal neurons primary culture. Hippocampal neurons were isolated from embryonic day 16 mice and plated at 1-2×10^5 cells per well in 24 well plate containing glass coverslips coated with poly-1-lysine and grown in serum-free NEUROBASAL™ media supplemented with B27, 0.5 mM L-glutamine (Invitrogen).
Transfection and immunostaining of mouse hippocampal neurons. […] Cultures were fixed with 4% paraformaldehyde in PBS 16 and 48 hours after transfection, permeabilized with 0.3% Triton X-100, blocked in 3% normal goat serum in PBS, and treated with mouse monoclonal anti-MAP-2 antibody (1:500; Sigma) and Alexa fluor 594 goat anti-mouse IgG antibody (1:1000; Molecular Probes).
TUNEL assay. […] Forty-eight hours after transfection, neuronal apoptosis was detected using DeadEndTM Fluorometric TUNEL System (Promega). Nuclei were visualized with Hoescht 33342 (Molecular Probes). These cells were also stained with anti-Myc antibody (1:200; Cell Signaling) and Alexa fluor 594 goat anti-rabbit IgG antibody (1:1000). All experiments were carried out in duplicate wells and at least repeated three times. Neuron cells were observed on a confocal microscope (OLYMPUS FLUOVIEW) following 48 hours post transfection.
Cell death analyses with EFHC1 mutants. […] Surviving cell numbers were scored by counting GFP fluorescent-positive cells that attached to dishes. At each counting, detached cells (dead cells) were carefully removed by changing culture medium. Morphologies of cells (cell shape, length and number of neurites, shrinkage, etc.) were not considered for the counting. Surviving cell numbers were scored at 24, 36, and 48 hours after transfection. Analyses were repeated twice by using two independently prepared expression construct DNAs. In total, neurons in seven wells of 24 well plates were counted for each transfection and time point. Experiments were performed in a blinded fashion.

T1 sequence (P27884 whole entry): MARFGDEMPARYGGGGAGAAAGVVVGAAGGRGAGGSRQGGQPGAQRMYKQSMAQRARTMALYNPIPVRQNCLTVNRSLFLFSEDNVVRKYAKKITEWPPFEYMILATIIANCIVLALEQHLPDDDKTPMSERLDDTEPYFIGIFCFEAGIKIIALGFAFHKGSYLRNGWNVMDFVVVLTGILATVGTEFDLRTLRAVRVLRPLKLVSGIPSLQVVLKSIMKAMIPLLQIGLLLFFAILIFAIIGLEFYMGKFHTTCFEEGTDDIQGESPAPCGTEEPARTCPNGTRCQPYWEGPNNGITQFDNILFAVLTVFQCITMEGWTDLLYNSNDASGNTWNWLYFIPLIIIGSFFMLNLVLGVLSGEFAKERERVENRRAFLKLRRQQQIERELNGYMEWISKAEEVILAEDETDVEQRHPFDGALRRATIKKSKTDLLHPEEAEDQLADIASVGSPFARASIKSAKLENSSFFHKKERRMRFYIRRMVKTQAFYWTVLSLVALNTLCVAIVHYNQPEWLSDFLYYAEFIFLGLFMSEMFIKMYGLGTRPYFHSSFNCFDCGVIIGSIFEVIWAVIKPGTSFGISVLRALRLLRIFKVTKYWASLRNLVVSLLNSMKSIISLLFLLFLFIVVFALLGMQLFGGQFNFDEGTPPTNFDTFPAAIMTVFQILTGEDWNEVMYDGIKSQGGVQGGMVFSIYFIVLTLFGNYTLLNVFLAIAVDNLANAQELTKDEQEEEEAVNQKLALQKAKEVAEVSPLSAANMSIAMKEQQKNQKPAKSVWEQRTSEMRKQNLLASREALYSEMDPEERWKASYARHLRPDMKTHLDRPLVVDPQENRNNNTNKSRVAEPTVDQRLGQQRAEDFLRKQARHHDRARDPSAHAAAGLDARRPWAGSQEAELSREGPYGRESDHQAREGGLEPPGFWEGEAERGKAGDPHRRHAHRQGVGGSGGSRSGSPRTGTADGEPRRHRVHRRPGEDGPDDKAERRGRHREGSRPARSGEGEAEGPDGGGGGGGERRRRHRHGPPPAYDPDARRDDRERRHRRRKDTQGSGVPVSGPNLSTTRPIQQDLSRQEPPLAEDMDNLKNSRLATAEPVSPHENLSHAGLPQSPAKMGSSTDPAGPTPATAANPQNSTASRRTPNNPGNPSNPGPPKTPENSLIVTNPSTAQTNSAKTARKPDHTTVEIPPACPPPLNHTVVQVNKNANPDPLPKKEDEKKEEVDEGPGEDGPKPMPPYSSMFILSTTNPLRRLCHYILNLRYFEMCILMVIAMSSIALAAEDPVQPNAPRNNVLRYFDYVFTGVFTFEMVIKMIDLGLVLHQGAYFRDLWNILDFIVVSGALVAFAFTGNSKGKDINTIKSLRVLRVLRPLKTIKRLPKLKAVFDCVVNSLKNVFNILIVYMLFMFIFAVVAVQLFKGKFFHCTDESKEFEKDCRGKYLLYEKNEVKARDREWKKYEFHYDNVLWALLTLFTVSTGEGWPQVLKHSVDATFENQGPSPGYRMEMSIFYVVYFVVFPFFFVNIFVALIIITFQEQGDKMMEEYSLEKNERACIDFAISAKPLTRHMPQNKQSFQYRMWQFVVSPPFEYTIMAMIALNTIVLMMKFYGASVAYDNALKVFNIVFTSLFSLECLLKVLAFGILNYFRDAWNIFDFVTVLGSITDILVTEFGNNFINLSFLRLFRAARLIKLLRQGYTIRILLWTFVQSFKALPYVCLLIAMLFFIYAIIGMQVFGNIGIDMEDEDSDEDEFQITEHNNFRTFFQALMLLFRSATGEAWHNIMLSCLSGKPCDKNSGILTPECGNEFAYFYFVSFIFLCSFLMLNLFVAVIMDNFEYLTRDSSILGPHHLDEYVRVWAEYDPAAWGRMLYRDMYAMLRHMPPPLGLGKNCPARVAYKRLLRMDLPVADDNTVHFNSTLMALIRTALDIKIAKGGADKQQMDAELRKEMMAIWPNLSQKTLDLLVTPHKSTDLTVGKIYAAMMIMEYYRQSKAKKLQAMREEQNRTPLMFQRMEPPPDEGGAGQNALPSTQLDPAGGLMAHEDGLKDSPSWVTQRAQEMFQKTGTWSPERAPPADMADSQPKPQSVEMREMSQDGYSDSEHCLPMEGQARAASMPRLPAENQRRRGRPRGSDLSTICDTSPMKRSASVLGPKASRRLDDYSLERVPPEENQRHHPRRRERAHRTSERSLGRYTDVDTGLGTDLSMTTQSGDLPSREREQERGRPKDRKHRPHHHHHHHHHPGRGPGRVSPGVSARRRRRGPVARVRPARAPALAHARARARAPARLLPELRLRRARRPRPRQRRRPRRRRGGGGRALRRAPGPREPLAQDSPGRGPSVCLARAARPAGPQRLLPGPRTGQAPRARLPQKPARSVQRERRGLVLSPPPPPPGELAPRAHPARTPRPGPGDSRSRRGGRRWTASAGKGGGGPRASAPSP
T1 sequence (P13806 27-1106 partner): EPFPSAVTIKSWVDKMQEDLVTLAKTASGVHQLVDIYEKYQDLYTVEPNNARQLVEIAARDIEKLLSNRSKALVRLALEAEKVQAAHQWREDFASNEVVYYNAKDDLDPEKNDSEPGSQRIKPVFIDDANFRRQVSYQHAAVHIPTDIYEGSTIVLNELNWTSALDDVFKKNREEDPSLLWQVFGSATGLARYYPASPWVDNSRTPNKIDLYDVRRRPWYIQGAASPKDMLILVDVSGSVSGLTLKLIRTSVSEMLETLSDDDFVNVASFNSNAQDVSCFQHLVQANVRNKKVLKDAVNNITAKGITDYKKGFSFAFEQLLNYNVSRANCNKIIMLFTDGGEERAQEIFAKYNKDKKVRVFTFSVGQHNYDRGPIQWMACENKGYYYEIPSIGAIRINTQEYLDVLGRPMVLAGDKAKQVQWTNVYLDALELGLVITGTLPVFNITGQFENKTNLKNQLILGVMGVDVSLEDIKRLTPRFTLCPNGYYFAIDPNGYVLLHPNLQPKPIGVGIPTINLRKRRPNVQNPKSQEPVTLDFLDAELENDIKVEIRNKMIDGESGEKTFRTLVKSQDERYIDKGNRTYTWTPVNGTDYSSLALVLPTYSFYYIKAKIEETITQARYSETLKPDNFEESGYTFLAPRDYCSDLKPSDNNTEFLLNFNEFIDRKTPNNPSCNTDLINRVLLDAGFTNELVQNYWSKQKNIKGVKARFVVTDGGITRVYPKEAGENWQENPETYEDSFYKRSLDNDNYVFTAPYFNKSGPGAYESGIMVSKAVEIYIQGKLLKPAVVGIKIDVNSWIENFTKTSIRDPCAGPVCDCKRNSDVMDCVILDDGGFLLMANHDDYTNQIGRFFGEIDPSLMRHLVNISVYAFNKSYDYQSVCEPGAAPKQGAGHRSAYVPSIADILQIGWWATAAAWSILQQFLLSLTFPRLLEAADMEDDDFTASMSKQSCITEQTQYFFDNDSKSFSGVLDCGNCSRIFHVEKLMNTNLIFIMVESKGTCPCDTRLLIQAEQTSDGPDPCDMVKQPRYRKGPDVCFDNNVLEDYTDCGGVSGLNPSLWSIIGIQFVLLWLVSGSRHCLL
T1 sequence (P19517 whole entry partner): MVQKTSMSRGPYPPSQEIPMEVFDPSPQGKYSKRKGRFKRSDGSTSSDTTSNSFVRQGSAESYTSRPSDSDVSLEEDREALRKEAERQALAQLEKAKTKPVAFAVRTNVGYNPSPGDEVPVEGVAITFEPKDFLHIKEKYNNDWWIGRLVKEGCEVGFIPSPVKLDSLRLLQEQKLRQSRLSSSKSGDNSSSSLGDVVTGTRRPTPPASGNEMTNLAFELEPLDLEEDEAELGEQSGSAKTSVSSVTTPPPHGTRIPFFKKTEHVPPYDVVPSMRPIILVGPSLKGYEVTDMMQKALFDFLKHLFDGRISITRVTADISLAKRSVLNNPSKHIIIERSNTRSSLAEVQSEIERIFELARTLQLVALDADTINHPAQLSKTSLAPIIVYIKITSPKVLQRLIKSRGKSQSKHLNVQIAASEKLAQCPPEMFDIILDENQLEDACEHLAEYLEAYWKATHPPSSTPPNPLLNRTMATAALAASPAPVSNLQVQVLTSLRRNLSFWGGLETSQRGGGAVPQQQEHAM

Molecule | Activation V0.5 (mV) [1] [mV] | Inactivation V0.5 (mV) [1] [mV] | inactivation speed of P/Q type VDCC (decelerating effect on calcium inactivation) [1] | Activation k (mV) [1] [mV] | Inactivation K (mV) [1] [mV] | cell-death effect (GFP-positive surviving cell numbers) [2]
D210N: EFHC1 protein with JME missense mutation D210N (Asp210Asn) (protein) MVSNPVHGLPFLPGTSFKDSTKTAFHRSQTLSYRNGYAIVRRPTVGIGGDRLQFNQLSQAELDELASKAPVLTYGQPKQAPPADFIPAHVAFDKKVLKFDAYFQEDVPMSTEEQYRIRQVNIYYYLEDDSMSVIEPVVENSGILQGKLIKRQRLAKNDRGDHYHWKDLNRGINITIYGKTFRVVDCDQFTQVFLESQGIELNPPEKMALNPYTELRKQPLRKYVTPSDFDQLKQFLTFDKQVLRFYAIWDDTDSMYGECRTYIIHYYLMDDTVEIREVHERNDGRDPFPLLMNRQRVPKVLVENAKNFPQCVLEISDQEVLEWYTAKDFIVGKSLTILGRTFFIYDCDPFTRRYYKEKFGITDLPRIDVSKREPPPVKQELPPYNGFGLVEDSAQNCFTLIPKAPKKDVIKMLVNDNKVLRYLAVLESPIPEDKDRRFVFSYFLATDMISIFEPPVRNSGIIGGKYLGRTKVVKPYSTVDNPVYYGPSDFFIGAVIEVFGHRFIILDTDEYVLKYMESNAAQYSPEALASIQNHVRKREAPAPEAESKQTEKDPGVQELEALIDTIQKQLKDHSCKDNIREAFQIYDKEASGYVDRDMFFKICESLNVPVDDSLVKELIRMCSHGEGKINYYNFVRAFSN | 24.1 ± 1.4 | −9.4 ± 1.4 | did not significantly affect | 9.08 ± 0.71 | 6.44 ± 0.33 | significantly reversed
R221H: EFHC1 protein with JME missense mutation R221H (Arg221His) (protein) MVSNPVHGLPFLPGTSFKDSTKTAFHRSQTLSYRNGYAIVRRPTVGIGGDRLQFNQLSQAELDELASKAPVLTYGQPKQAPPADFIPAHVAFDKKVLKFDAYFQEDVPMSTEEQYRIRQVNIYYYLEDDSMSVIEPVVENSGILQGKLIKRQRLAKNDRGDHYHWKDLNRGINITIYGKTFRVVDCDQFTQVFLESQGIELNPPEKMALDPYTELRKQPLHKYVTPSDFDQLKQFLTFDKQVLRFYAIWDDTDSMYGECRTYIIHYYLMDDTVEIREVHERNDGRDPFPLLMNRQRVPKVLVENAKNFPQCVLEISDQEVLEWYTAKDFIVGKSLTILGRTFFIYDCDPFTRRYYKEKFGITDLPRIDVSKREPPPVKQELPPYNGFGLVEDSAQNCFTLIPKAPKKDVIKMLVNDNKVLRYLAVLESPIPEDKDRRFVFSYFLATDMISIFEPPVRNSGIIGGKYLGRTKVVKPYSTVDNPVYYGPSDFFIGAVIEVFGHRFIILDTDEYVLKYMESNAAQYSPEALASIQNHVRKREAPAPEAESKQTEKDPGVQELEALIDTIQKQLKDHSCKDNIREAFQIYDKEASGYVDRDMFFKICESLNVPVDDSLVKELIRMCSHGEGKINYYNFVRAFSN | 17.7 ± 1.9 | −17.0 ± 2.5 | abolished the decelerating effect | 7.08 ± 0.81 | 7.00 ± 0.27 | significantly reversed
